Positions count from the first letter of the chain named. Values belong to the binder of their own block, whether it stands above or below them.
Experiments:
Human HER3 ECD domain II [1] = target: T1, Human HER3 ECD domain II (human, UniProt P21860 184-329); experiment: affinity summary table, method not given
T1 construct: also called D2; Domain 2

[2] = target: T2, Full-length human HER3 extracellular domain (ECD) (human, UniProt P21860 20-643); experiment: affinity summary table, method not given
T2 construct: also called human HER3 ECD; HER-3 ECD full length
T2 sequence (P21860 20-643): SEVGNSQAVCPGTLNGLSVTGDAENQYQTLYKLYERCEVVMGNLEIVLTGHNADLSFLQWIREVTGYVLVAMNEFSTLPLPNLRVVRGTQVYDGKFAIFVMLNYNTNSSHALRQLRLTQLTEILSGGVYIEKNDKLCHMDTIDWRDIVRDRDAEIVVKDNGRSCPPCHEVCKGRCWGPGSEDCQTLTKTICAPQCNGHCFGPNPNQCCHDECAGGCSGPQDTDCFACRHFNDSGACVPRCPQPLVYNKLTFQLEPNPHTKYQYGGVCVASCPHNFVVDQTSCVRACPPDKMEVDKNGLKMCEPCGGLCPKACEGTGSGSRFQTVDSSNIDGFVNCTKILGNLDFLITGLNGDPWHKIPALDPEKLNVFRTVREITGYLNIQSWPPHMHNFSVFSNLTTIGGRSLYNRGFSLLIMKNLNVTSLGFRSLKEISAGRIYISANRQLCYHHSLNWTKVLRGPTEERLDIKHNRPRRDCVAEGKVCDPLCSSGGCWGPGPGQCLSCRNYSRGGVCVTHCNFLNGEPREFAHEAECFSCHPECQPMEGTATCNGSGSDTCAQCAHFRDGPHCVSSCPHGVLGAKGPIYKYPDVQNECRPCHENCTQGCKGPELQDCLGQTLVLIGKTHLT

Human HER3 ECD domain II [3] = target: T1, Human HER3 ECD domain II; experiment: BIACORE 2000 SPR, mAb captured, HER3 protein as analyte, 25 C
Description: (§1) Mouse monoclonal antibodies were analysed using rabbit anti-mouse (RAM) IgG (GE Healthcare BR-1008-38) covalently coupled to a BIACORE™ CM5 chip (GE HEalthcare BR-1000-14) by primary amine chemistry (NHS/EDC activated) (GE Healthcare amine coupling kit BR-1000-50). Chimeric and humanized competitor monoclonal antibodies were analyzed using anti-human, Fc specific monoclonal (GE Healthcare BR-1008-39) similarly coupled. Each chip was also prepared with a reference surface to which no capture reagent antibody is coupled. Sensorgrams for cycles run with differing analyte concentrations are acquired for kinetic analysis. A cycle consists of capturing the monoclonal on the surface, a short stabilization period with flowing run buffer followed by binding of a defined concentration of analyte (ECD or sub-domain protein). Injection of analyte for surface binding (3-4 minutes) yields the association part of curve. This is followed by buffer only flow (3-4 minutes) which allows recording of dissociation data.
(§2) The general method for affinity analysis is as follows. First, chips were prepared and tested for reasonance units (RU) captured for several monoclonal antibody concentrations. Kinetic cycles were then run in which monoclonal antibody was captured to a level of approximately 100RU, analyte protein was allowed to bind then dissociate and the surface was regenerated to remove all but covalently coupled protein. RAM chips were regenerated with capture kit supplied 100 mM glycine pH1.7 and anti-human chips with capture kit supplied 3M MgCl₂. […] Several buffer cycles were run prior to analyte protein to ensure cycle consistency and in some experiments a buffer cycle is used a “double reference[.]” Analytes used were human full length HER3 extra cellular domain (ECD), separate sub-domains of the extracellular portion of human HER3 (D1, D2, D3, D4), or combination HER3 domain proteins (D1-2 and D2-3).

[4] = target: T2, Full-length human HER3 extracellular …; experiment: as above
Description: as §1, §2

[5] = target: T2, Full-length human HER3 extracellular …; experiment: BIACORE 3000 SPR, mAb captured by anti-human Fc, ECD as analyte, 25 C
Description: The binding kinetics of these antibodies for was assessed using a BIACORE™ 3000. Antibodies were captured on a CM5 biosensor chip to which an immobilized anti-human IgG (Fc specific) BIACORE™ (GE Healthcare cat# BR-1008-39) monoclonal antibody had been conjugated using supplied coupling buffer (9000 RU). Full-length human HER3 ECD concentrations were injected for 120s at a flow rate of 30 ul/min. Biosensor chips were regenerated as described in Example 1. Kinetics were determined by global fitting of data to the 1:1 Langmuir model using BIACORE™ Evaluation software. Analytical runs were carried out at 25° C. using FIBS-EP as the running buffer.
Buffer cycle and double referencing were performed as described in Example 1; and 5) Regenerate biosensor chips with BIACORE™ optimized buffers.

[6] = target: T3, Human HER3 ECD domain III (human, UniProt P21860 330-495); experiment: affinity summary table, method not given
T3 construct: also called D3; Domain 3
T3 sequence (P21860 330-495): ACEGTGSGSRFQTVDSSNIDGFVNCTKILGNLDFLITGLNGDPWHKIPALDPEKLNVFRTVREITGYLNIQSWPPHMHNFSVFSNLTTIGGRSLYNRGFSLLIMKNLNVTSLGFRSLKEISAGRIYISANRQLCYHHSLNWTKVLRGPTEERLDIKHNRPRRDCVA

[7] = target: T3, Human HER3 ECD domain III; experiment: BIACORE 2000 SPR, mAb captured, HER3 protein as analyte, 25 C
Description: as §1, §2

[8] = target: T2, Full-length human HER3 extracellular …; experiment: BIACORE SPR, mAb captured on protein A, ECD as analyte, 25 C
Description: (§3) Protein A was immobilised on a CM5 chip by primary amine coupling to a level of ˜1300 resonance units (RU′s), humanized antibodies were then captured on this chip, All antibodies were captured to a similar level (100-200 RU's). […] Alternatively, the full-length, rat HER3 ECD or the full-length cynomolgus monkey ECD were passed over the chip at 10 nM, 5 nM, 2.5 nM, 1:25nM, 0.625 nM and 0.3125nM. An injection of buffer alone was used to double reference the binding curves as indicated in Example 1. Regeneration of this surface was achieved using 10 mM Glycine buffer pH 1.5. The binding data was fitted to the 1:1 model using BIACORE™ Evaluation software. Runs were carried out at 25° C. on a BIACORE™ T3000 using HBS-EP as running buffer.

Human HER3 receptor [9] = target: T4, Human HER3 receptor (human, UniProt P21860 20-1342); experiment: cell-based or functional assay
T4 sequence (P21860 20-1342 limits assumed): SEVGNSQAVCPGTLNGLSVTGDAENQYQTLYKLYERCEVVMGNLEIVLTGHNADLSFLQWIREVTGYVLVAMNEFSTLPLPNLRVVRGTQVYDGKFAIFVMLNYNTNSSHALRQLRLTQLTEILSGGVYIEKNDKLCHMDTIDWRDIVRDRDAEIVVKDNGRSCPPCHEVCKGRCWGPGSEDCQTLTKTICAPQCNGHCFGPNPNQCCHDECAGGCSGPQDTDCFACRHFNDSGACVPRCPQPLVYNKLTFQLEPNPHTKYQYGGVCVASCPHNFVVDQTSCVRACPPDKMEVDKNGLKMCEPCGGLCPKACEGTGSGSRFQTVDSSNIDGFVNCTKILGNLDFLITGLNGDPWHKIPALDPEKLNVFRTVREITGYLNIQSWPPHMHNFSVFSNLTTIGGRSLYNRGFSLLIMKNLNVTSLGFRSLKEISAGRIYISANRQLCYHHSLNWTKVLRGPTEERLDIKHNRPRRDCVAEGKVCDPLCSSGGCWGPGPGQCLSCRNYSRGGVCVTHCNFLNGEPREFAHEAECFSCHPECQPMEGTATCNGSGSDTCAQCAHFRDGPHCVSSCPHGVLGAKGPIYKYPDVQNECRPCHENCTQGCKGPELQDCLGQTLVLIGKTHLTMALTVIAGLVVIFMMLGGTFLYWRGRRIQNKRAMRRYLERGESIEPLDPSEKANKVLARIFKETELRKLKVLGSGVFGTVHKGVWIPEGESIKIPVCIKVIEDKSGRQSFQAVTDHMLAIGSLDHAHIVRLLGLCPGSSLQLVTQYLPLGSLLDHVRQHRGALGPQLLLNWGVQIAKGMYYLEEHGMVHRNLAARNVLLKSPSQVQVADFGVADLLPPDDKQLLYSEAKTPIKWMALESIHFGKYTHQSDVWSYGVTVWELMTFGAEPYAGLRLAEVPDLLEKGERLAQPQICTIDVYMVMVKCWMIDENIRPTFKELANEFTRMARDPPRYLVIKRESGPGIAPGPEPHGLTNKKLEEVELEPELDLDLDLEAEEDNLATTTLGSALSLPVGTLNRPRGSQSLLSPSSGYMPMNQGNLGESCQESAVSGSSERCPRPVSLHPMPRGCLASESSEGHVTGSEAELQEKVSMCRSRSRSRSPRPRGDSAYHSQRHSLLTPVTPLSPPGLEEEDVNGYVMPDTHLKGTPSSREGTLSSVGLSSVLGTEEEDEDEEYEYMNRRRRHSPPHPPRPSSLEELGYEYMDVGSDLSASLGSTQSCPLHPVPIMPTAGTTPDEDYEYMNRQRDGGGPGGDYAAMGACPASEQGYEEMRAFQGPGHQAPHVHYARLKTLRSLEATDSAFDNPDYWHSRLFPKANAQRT

[10] = target: T5, Full-length rat HER3 extracellular domain (ECD) (rat, UniProt Q62799 20-643); experiment: BIACORE SPR, mAb captured on protein A, ECD as analyte, 25 C
T5 construct: extracellular domain; also called Rat HER3 ECD
T5 sequence (Q62799 20-643): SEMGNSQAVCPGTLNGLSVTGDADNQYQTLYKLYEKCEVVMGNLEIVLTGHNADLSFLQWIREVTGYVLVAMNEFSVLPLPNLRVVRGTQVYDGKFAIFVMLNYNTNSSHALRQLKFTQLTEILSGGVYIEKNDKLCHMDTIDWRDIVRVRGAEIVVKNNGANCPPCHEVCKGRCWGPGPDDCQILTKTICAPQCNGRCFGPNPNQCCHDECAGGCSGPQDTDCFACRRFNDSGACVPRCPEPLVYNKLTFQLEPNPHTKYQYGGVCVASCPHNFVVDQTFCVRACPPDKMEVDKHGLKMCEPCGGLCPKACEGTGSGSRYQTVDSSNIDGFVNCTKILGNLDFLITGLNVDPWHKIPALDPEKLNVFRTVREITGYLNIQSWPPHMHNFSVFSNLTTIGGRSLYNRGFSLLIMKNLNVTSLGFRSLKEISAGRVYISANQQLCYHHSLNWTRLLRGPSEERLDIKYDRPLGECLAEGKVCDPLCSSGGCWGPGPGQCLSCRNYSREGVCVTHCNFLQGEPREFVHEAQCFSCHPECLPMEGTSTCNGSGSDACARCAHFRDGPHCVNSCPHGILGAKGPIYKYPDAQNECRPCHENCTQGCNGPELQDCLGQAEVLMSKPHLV
Description: as §3

[11] = target: T6, Full-length cynomolgus monkey HER3 extracellular domain (ECD) (cynomolgus monkey, UniProt G7PIG5 20-643); experiment: as above
T6 construct: extracellular domain; also called Cynomolgus monkey HER3 ECD
T6 sequence (G7PIG5 entry or part of it): as the sequence (P21860 20-643) above, with R145K, R151Q, P166L, S180P, H388Y counted along it
Description: as §3

[12] = target: T2, Full-length human HER3 extracellular …; experiment: as above; remark: listed apart in the source
Description: as §3

Human HER3 receptor [13] = target: T4, Human HER3 receptor; experiment: cell-based or functional assay; remark: listed apart in the source

T1 sequence (P21860 184-329): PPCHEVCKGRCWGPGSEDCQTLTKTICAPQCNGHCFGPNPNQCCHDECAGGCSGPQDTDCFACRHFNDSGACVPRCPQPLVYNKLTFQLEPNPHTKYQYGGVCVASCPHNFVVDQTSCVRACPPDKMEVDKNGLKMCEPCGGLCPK

Kd (Human HER3 ECD domain II [1]): 0.02 nM
Kd [2]: ~1 nM
Kd (Human HER3 ECD domain II [3]): 0.02 nM
kon (Human HER3 ECD domain II [3]): 3.82e+06 M⁻¹ s⁻¹
Kd [4]: 0.87 nM
kon [4]: 67900 M⁻¹ s⁻¹
Kd [5]: 3.19 nM
koff [5]: 0.00014 s⁻¹
kon [5]: 44000 M⁻¹ s⁻¹
B1: Chimeric 15D5 antibody (antibody, human IgG1, V domains shown)
VH: EFQLQQSGPELVKPGASVKISCKASGYSFTDYNMNWVKQNNGKSLEWIGGINPNYGTTVYNQKFKGKATLTVDQSSSTAYMQLVSLTSEDSAVYYCARMTTIVPFDYWGQGTTLTVSS
VL: DIQMTQTTFSLSASLGDRVTISCRASQDISNYLNWYQQKPDGTVKLLIYYTSTLHSGVPSRFSGSGSGTDYFLTIRNLEEEDIATYFCQQGYTLPWTFGGGTKLDIK
notes: To be rechecked; also called Ch15D5; ch15D5

Kd [6]: 0.198 nM
Kd [2]: ~1 nM
Kd [7]: 0.2 nM
kon [7]: 4.58e+06 M⁻¹ s⁻¹
Kd [4]: 1.1 nM
kon [4]: 740000 M⁻¹ s⁻¹
B2: Chimeric 1D9 antibody (antibody, V domains shown)
VH: QVQLQQPGAELVRPGTSVKLSCKASGYTFTSYWMHWVKQRPGQGLEWIGVIDPSDGYSHYNQKFKGKATLTVDTSSSTAYMQLSSLTSEDSAVYYCAGGLAGTLDYWGQGTTLTVSS
VL: DVLMTQTPLSLPVSLGDQASISCRSSQSIVHSSGNTYLQWFLQKPGQSPKLLISKVSNRFSGVPDRFSGSGSGTDFTLRISRVEAEDLGLYYCFQGSHVPWTFGGGTKLEIK
notes: Murine VH fused to human IgG1 CH1-Fc, murine VL fused to human CK; also called Ch1D9; ch1D9

Kd [8]: 4.49 nM
koff [8]: 0.00122 s⁻¹
kon [8]: 271000 M⁻¹ s⁻¹
Phospho-AKT ELISA IC50, heregulin induced, BxPC3 cells (Human HER3 receptor [9]): 0.0316 µg/mL
Kd [10]: 3.37 nM
koff [10]: 0.0011 s⁻¹
kon [10]: 326000 M⁻¹ s⁻¹
Kd [11]: 1.73 nM
koff [11]: 0.00189 s⁻¹
kon [11]: 1.09e+06 M⁻¹ s⁻¹
Kd [12]: 4.49 nM
koff [12]: 0.00122 s⁻¹
kon [12]: 271000 M⁻¹ s⁻¹
Phospho-HER3 ELISA IC50, heregulin induced, BxPC3 cells (Human HER3 receptor [13]): 0.0107 µg/mL
Phospho-HER3 ELISA IC50, heregulin induced, CHL-1 cells (Human HER3 receptor [13]): 0.0399 µg/mL
Phospho-HER3 ELISA IC50, heregulin induced, N87 cells (Human HER3 receptor [13]): 0.0297 µg/mL
Phospho-HER3 ELISA IC50, heregulin induced, SK-BR-3 cells (Human HER3 receptor [13]): 0.0044 µg/mL
B3: Humanized 1D9 Fc disabled antibody (antibody, V domains shown)
VH: QVQLVQSGAEVKKPGASVKVSCKASGYTFTSYWMHWVRQAPGQGLEWMGVIDPSDGYSHYNQKFKGKVTLTVDTSISTAYMELSRLRSDDTAVYYCAGGLAGTLDYWGQGTTVTVSS
VL: DIQMTQSPSSLSASVGDRVTITCRSSQSIVHSSGNTYLQWFQQKPGKAPKLLIYKVSNRFSGVPSRFSGSGSGTDFTLTISSLQPEDFAVYYCFQGSHVPWTFGQGTKLEIKR
notes: Humanized VH fused to a modified Fc domain incapable of mediating CDC/ADCC; also called humanized 1D9 H6L2 Fc disabled antibody

Kd [5]: 59.5 nM
koff [5]: 0.00195 s⁻¹
kon [5]: 32700 M⁻¹ s⁻¹
B4: 1D9 H0L7 RR antibody (antibody, V domains shown)
VH: B3 VH with K67R, L70M, V72R, G98R
VL: DVVMTQSPLSLPVTLGQPASISCRSSQSIVHSSGNTYLQWFQQRPGQSPRRLISKVSNRFSGVPDRFSGSGSGTDFTLKISRVEAEDVGVYYCFQGSHVPWTFGQGTKLEIKR
notes: Humanized RR variant; captured by anti-human Fc

Kd [5]: 95.8 nM
koff [5]: 0.00292 s⁻¹
kon [5]: 30400 M⁻¹ s⁻¹
B5: 1D9 H3L6 RR antibody (antibody, V domains shown)
VH: B3 VH with L70M, V72R, G98R
VL: B4 VL with S54Y

Kd [5]: 7.02 nM
koff [5]: 0.00487 s⁻¹
kon [5]: 694000 M⁻¹ s⁻¹
B6: 1D9 H6L6 RR antibody (antibody, V domains shown)
VH: B3 VH
VL: B4 VL with S54Y
notes: To be rechecked

Kd [5]: 38.1 nM
koff [5]: 0.0144 s⁻¹
kon [5]: 377000 M⁻¹ s⁻¹
B7: 1D9 H0L9 RR antibody (antibody, V domains shown)
VH: B3 VH with K67R, L70M, V72R, G98R
VL: B4 VL with R50K, R51L
notes: Humanized RR variant; also called 1D9 HOL9 RR antibody

Kd [5]: 3.35 nM
koff [5]: 0.00223 s⁻¹
kon [5]: 665000 M⁻¹ s⁻¹
B8: 1D9 H6L9 RR antibody (antibody, V domains shown)
VH: B3 VH
VL: B4 VL with R50K, R51L
notes: Humanized RR variant

Kd [6]: 0.018 nM
Kd [2]: 4.1 nM
Kd [5]: 3.96 nM
koff [5]: 0.0017 s⁻¹
kon [5]: 430000 M⁻¹ s⁻¹
B9: Humanized 1D9 RR antibody (H6L2) (antibody, human IgG1, V domains shown)
VH: B3 VH
VL: DIQMTQSPSSLSASVGDRVTITCRSSQSIVHSSGNTYLQWFQQKPGKAPKLLIYKVSNRFSGVPSRFSGSGSGTDFTLTISSLQPEDFAVYYCFQGSHVPWTFGQGTKLEIKRR
notes: Human IgG1; also called 1D9 H6L2 RR antibody; h1D9 RR wt

Kd (Human HER3 ECD domain II [1]): 0.074 nM
Kd [2]: 3.5 nM
Kd [5]: 2.62 nM
koff [5]: 0.000196 s⁻¹
kon [5]: 74900 M⁻¹ s⁻¹
B10: Humanized 15D5 antibody (H4L1) (antibody, human IgG1, V domains shown)
VH: QVQLVQSGAEVKKPGASVKVSCKASGYTFTDYNMNWVRQAPGQGLEWMGGINPNYGTTVYNQKFKGKVTLTVDTSISTAYMELSRLRSDDTAVYYCARMTTIVPFDYWGQGTTVTVSS
VL: DIQMTQSPSSLSASVGDRVTITCRASQDISNYLNWYQQKPGKAPKLLIYYTSTLHSGVPSRFSGSGSGTDYTFTISSLQPEDIATYYCQQGYTLPWTFGGGTKVEIKR
notes: Human IgG1; also called h15D5

Source: patent US20130156779A1 (GlaxoSmithKline, published 2013)
